Data taken from PMC9943664.

Test system: MBP-DDX3X (human)
Test: EMSA
Conditions: DDX3X EMSA: 40 mM Tris-Cl pH 8, 50 mM NaCl, 0.5 mM MgCl2, 2 mM DTT, 0.01% NP40, 2 mM AMP-PNP/MgCl2, 37 C 30 min, UV 254 nm 3 min, 6% native PAGE in 0.5x TB + …

Substance	Kd (native post-transcriptional modifications (not listed)) [nM]	Kd (none (unmodified)) [nM]
endogenous tRNA-LysUUU/CUU	83.4	
synthetic tRNA-LysUUU		431
